US20210340208A1 (ANWITA BIOSCIENCES, published 2021)

T1: IL-2Rα-Fc fusion protein (human, UniProt P01589 22-240)
T1 construct: also called human IL-2Rα (CD25); CD25; not shown: Fc part and any linker are not described; captured on an anti-human IgG Fc sensor
T1 sequence: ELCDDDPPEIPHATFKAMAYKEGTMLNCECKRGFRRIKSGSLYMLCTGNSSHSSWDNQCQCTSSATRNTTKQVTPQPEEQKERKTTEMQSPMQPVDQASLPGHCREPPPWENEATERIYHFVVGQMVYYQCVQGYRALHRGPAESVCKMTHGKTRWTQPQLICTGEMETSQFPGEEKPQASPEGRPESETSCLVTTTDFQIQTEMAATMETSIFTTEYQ

T2: human CD122-Fc (AbroBio) (human, UniProt P14784 27-239)
T2 construct: also called IL-2Rβ; not shown: Fc part and any linker of the bought protein are not described; captured on an anti-human Fc sensor
T2 sequence: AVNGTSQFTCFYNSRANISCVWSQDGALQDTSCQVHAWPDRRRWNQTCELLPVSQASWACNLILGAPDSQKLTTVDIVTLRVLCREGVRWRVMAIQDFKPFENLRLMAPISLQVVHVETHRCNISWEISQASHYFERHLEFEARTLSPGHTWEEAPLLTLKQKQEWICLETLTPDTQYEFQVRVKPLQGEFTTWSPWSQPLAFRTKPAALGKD


How the values were obtained:
IL-2Rα-Fc fusion protein [1] = target: T1, IL-2Rα-Fc fusion protein; assay: BLI (Octet RED96), IL-2Rα-Fc on AHC biosensor
Method: (§1) OCTET® RED96 was used to characterize the interactions of a wild-type hIL-2 and hIL-2 muteins with a human IL-2Rα (CD25). Briefly, an IL-2Rα-Fc fusion protein was loaded onto an anti-human IgG Fc capture (AHC) biosensor. The biosensor was then dipped into a solution containing a wild-type hIL-2 (WT IL-2) or an IL-2 mutein at various concentrations. Primary experimental data was analyzed with global fitting to determine a binding affinity (Kd).

human CD122-Fc (AbroBio) = target: T2, human CD122-Fc (AbroBio); assay: BLI (Octet RED96), CD122-Fc on AHC sensor, 400 nM hIL-2 polypeptide
Method: OCTET® RED96 was used to characterize the interactions of a human CD122-Fc (AbroBio) with a wild-type hIL-2 and hIL-2 muteins. Briefly, an anti-human Fc sensor (AHC) loaded with the human CD122 was dip into 400 nM of an hIL-2 polypeptide. The binding signaling of fusion protein A1 was normalized to 1.

IL-2Rα-Fc fusion protein [2] = target: T1, IL-2Rα-Fc fusion protein; assay: BLI (Octet RED96), IL-2Rα-Fc on AHC biosensor, global fit
Method: as §1

Binder | binding result (IL-2Rα-Fc fusion protein [1]) | CD122 Binding Response (A1 normalized to 1) (human CD122-Fc (AbroBio)) | Kd (IL-2Rα-Fc fusion protein [2])
hIL-2-anti-HSA A56 (ligand, fused to anti-HSA VHH; also called IL-2-IL-15 chimera 3) APTSSSTKKTQLQLEHLLLDLQMILNGIQSMEIDATKFYMPKKATELKHLQCLEEELKPLEEVLNLAQSKNFHLRPRDLISNINVIVLELKGSETTFMCEYADETATIVEFLNRWITFSQSIISTLTGSGGSGGSGGSGEVQLVESGGGLVQPGGSLRLSCAASGSTWSINTLAWYRQAPGKQRDLVARISSGGSTYYADSVKGRFTISRDNSKNTLYLQMNSLRAEDTAVYYCYAQSTWYPPSWGQGTLVTVSS | no binding |  | 
hIL-2-anti-HSA A55 (ligand, fused to anti-HSA VHH; also called IL-2-IL-15 chimera 2) APTSSSTKKTQLQLEHLLLDLQMILNGIQSMEIDATTFKFYMPKKATELKHLQCLEEELKPLEEVLNLAQSKNFHLRPRDLISNINVIVLELKGSETTFMCEYADETATIVEFLNRWITFSQSIISTLTGSGGSGGSGGSGEVQLVESGGGLVQPGGSLRLSCAASGSTWSINTLAWYRQAPGKQRDLVARISSGGSTYYADSVKGRFTISRDNSKNTLYLQMNSLRAEDTAVYYCYAQSTWYPPSWGQGTLVTVSS | no binding |  | 
hIL-2-anti-HSA A54 (ligand, fused to anti-HSA VHH; also called IL-2-IL-15 chimera 1) APTSSSTKKTQLQLEHLLLDLQMILNGINNYENPKLTDATLYMPKKATELKHLQCLEEELKPLEEVLNLAQSKNFHLRPRDLISNINVIVLELKGSETTFMCEYADETATIVEFLNRWITFSQSIISTLTGSGGSGGSGGSGEVQLVESGGGLVQPGGSLRLSCAASGSTWSINTLAWYRQAPGKQRDLVARISSGGSTYYADSVKGRFTISRDNSKNTLYLQMNSLRAEDTAVYYCYAQSTWYPPSWGQGTLVTVSS | no binding |  | 
hIL-2-anti-HSA A2 (ligand, glycosylated IL-2 (site and glycan not stated for the tested protein), fused to anti-HSA VHH; also called hIL-2 mutein (R38N, L40T, C125S); glycosylated IL-2) APTSSSTKKTQLQLEHLLLDLQMILNGINNYKNPKLTNMTTFKFYMPKKATELKHLQCLEEELKPLEEVLNLAQSKNFHLRPRDLISNINVIVLELKGSETTFMCEYADETATIVEFLNRWITFSQSIISTLTGSGGSGGSGGSGEVQLVESGGGLVQPGGSLRLSCAASGSTWSINTLAWYRQAPGKQRDLVARISSGGSTYYADSVKGRFTISRDNSKNTLYLQMNSLRAEDTAVYYCYAQSTWYPPSWGQGTLVTVSS | no binding | 0.68 | 
hIL-2-anti-HSA A49 (ligand, fused to anti-HSA VHH; also called hIL-2 mutein (K32E, F42C, V69C, C125S); IL-2 with an additional disulfide bond) APTSSSTKKTQLQLEHLLLDLQMILNGINNYENPKLTRMLTCKFYMPKKATELKHLQCLEEELKPLEECLNLAQSKNFHLRPRDLISNINVIVLELKGSETTFMCEYADETATIVEFLNRWITFSQSIISTLTGSGGSGGSGGSGEVQLVESGGGLVQPGGSLRLSCAASGSTWSINTLAWYRQAPGKQRDLVARISSGGSTYYADSVKGRFTISRDNSKNTLYLQMNSLRAEDTAVYYCYAQSTWYPPSWGQGTLVTVSS | no binding | 1.04 | 
hIL-2-anti-HSA A52 (ligand, fused to anti-HSA VHH; also called hIL-2 mutein (F42C, V69C, C125S)) APTSSSTKKTQLQLEHLLLDLQMILNGINNYKNPKLTRMLTCKFYMPKKATELKHLQCLEEELKPLEECLNLAQSKNFHLRPRDLISNINVIVLELKGSETTFMCEYADETATIVEFLNRWITFSQSIISTLTGSGGSGGSGGSGEVQLVESGGGLVQPGGSLRLSCAASGSTWSINTLAWYRQAPGKQRDLVARISSGGSTYYADSVKGRFTISRDNSKNTLYLQMNSLRAEDTAVYYCYAQSTWYPPSWGQGTLVTVSS | no binding |  | 
hIL-2-anti-HSA A45 (ligand, fused to anti-HSA VHH; also called IL2 mutein (K32E, R38E, F42K, C125S)) APTSSSTKKTQLQLEHLLLDLQMILNGINNYENPKLTEMLTKKFYMPKKATELKHLQCLEEELKPLEEVLNLAQSKNFHLRPRDLISNINVIVLELKGSETTFMCEYADETATIVEFLNRWITFSQSIISTLTGSGGSGGSGGSGEVQLVESGGGLVQPGGSLRLSCAASGSTWSINTLAWYRQAPGKQRDLVARISSGGSTYYADSVKGRFTISRDNSKNTLYLQMNSLRAEDTAVYYCYAQSTWYPPSWGQGTLVTVSS | no binding |  | 
hIL-2-anti-HSA A36 (ligand, fused to anti-HSA VHH; also called IL2 mutein (K32E, R38A, C125S)) APTSSSTKKTQLQLEHLLLDLQMILNGINNYENPKLTAMLTFKFYMPKKATELKHLQCLEEELKPLEEVLNLAQSKNFHLRPRDLISNINVIVLELKGSETTFMCEYADETATIVEFLNRWITFSQSIISTLTGSGGSGGSGGSGEVQLVESGGGLVQPGGSLRLSCAASGSTWSINTLAWYRQAPGKQRDLVARISSGGSTYYADSVKGRFTISRDNSKNTLYLQMNSLRAEDTAVYYCYAQSTWYPPSWGQGTLVTVSS |  |  | 50 nM

Now from value to binder:

binding result (IL-2Rα-Fc fusion protein [1]) | CD122 Binding Response (A1 normalized to 1) (human CD122-Fc (AbroBio)) | Kd (IL-2Rα-Fc fusion protein [2]) | Binder
no binding |  |  | hIL-2-anti-HSA A44 (ligand, fused to anti-HSA VHH; also called IL2 mutein (K32E, R38A, F42K, C125S)) APTSSSTKKTQLQLEHLLLDLQMILNGINNYENPKLTAMLTKKFYMPKKATELKHLQCLEEELKPLEEVLNLAQSKNFHLRPRDLISNINVIVLELKGSETTFMCEYADETATIVEFLNRWITFSQSIISTLTGSGGSGGSGGSGEVQLVESGGGLVQPGGSLRLSCAASGSTWSINTLAWYRQAPGKQRDLVARISSGGSTYYADSVKGRFTISRDNSKNTLYLQMNSLRAEDTAVYYCYAQSTWYPPSWGQGTLVTVSS
no binding |  |  | hIL-2-anti-HSA A48 (ligand, fused to anti-HSA VHH; also called hIL-2 mutein (K32E, R38C, L72C, C125S)) APTSSSTKKTQLQLEHLLLDLQMILNGINNYENPKLTCMLTFKFYMPKKATELKHLQCLEEELKPLEEVLNCAQSKNFHLRPRDLISNINVIVLELKGSETTFMCEYADETATIVEFLNRWITFSQSIISTLTGSGGSGGSGGSGEVQLVESGGGLVQPGGSLRLSCAASGSTWSINTLAWYRQAPGKQRDLVARISSGGSTYYADSVKGRFTISRDNSKNTLYLQMNSLRAEDTAVYYCYAQSTWYPPSWGQGTLVTVSS
no binding |  |  | hIL-2-anti-HSA A50 (ligand, fused to anti-HSA VHH; also called hIL-2 mutein (K32E, Y45C, E62C, C125S)) APTSSSTKKTQLQLEHLLLDLQMILNGINNYENPKLTRMLTFKFCMPKKATELKHLQCLEECLKPLEEVLNLAQSKNFHLRPRDLISNINVIVLELKGSETTFMCEYADETATIVEFLNRWITFSQSIISTLTGSGGSGGSGGSGEVQLVESGGGLVQPGGSLRLSCAASGSTWSINTLAWYRQAPGKQRDLVARISSGGSTYYADSVKGRFTISRDNSKNTLYLQMNSLRAEDTAVYYCYAQSTWYPPSWGQGTLVTVSS
no binding |  |  | hIL-2-anti-HSA A53 (ligand, fused to anti-HSA VHH; also called hIL-2 mutein (F42C, V69C, K76E, C125S)) APTSSSTKKTQLQLEHLLLDLQMILNGINNYKNPKLTRMLTCKFYMPKKATELKHLQCLEEELKPLEECLNLAQSENFHLRPRDLISNINVIVLELKGSETTFMCEYADETATIVEFLNRWITFSQSIISTLTGSGGSGGSGGSGEVQLVESGGGLVQPGGSLRLSCAASGSTWSINTLAWYRQAPGKQRDLVARISSGGSTYYADSVKGRFTISRDNSKNTLYLQMNSLRAEDTAVYYCYAQSTWYPPSWGQGTLVTVSS
no binding |  |  | hIL-2-anti-HSA A39 (ligand, fused to anti-HSA VHH; also called IL2 mutein (K32E, R38E, F42A, C125S)) APTSSSTKKTQLQLEHLLLDLQMILNGINNYENPKLTEMLTAKFYMPKKATELKHLQCLEEELKPLEEVLNLAQSKNFHLRPRDLISNINVIVLELKGSETTFMCEYADETATIVEFLNRWITFSQSIISTLTGSGGSGGSGGSGEVQLVESGGGLVQPGGSLRLSCAASGSTWSINTLAWYRQAPGKQRDLVARISSGGSTYYADSVKGRFTISRDNSKNTLYLQMNSLRAEDTAVYYCYAQSTWYPPSWGQGTLVTVSS
no binding |  |  | hIL-2-anti-HSA A46 (ligand, fused to anti-HSA VHH; also called IL2 mutein (K32E, R38G, F42K, C125S)) APTSSSTKKTQLQLEHLLLDLQMILNGINNYENPKLTGMLTKKFYMPKKATELKHLQCLEEELKPLEEVLNLAQSKNFHLRPRDLISNINVIVLELKGSETTFMCEYADETATIVEFLNRWITFSQSIISTLTGSGGSGGSGGSGEVQLVESGGGLVQPGGSLRLSCAASGSTWSINTLAWYRQAPGKQRDLVARISSGGSTYYADSVKGRFTISRDNSKNTLYLQMNSLRAEDTAVYYCYAQSTWYPPSWGQGTLVTVSS
no binding |  |  | hIL-2-anti-HSA A40 (ligand, fused to anti-HSA VHH; also called IL2 mutein (K32E, R38G, F42A, C125S)) APTSSSTKKTQLQLEHLLLDLQMILNGINNYENPKLTGMLTAKFYMPKKATELKHLQCLEEELKPLEEVLNLAQSKNFHLRPRDLISNINVIVLELKGSETTFMCEYADETATIVEFLNRWITFSQSIISTLTGSGGSGGSGGSGEVQLVESGGGLVQPGGSLRLSCAASGSTWSINTLAWYRQAPGKQRDLVARISSGGSTYYADSVKGRFTISRDNSKNTLYLQMNSLRAEDTAVYYCYAQSTWYPPSWGQGTLVTVSS
no binding |  |  | hIL-2-anti-HSA A42 (ligand, fused to anti-HSA VHH; also called IL2 mutein (K32E, R38E, F42G, C125S)) APTSSSTKKTQLQLEHLLLDLQMILNGINNYENPKLTEMLTGKFYMPKKATELKHLQCLEEELKPLEEVLNLAQSKNFHLRPRDLISNINVIVLELKGSETTFMCEYADETATIVEFLNRWITFSQSIISTLTGSGGSGGSGGSGEVQLVESGGGLVQPGGSLRLSCAASGSTWSINTLAWYRQAPGKQRDLVARISSGGSTYYADSVKGRFTISRDNSKNTLYLQMNSLRAEDTAVYYCYAQSTWYPPSWGQGTLVTVSS
